These results are taken from patent US20230235040A1 (ALMIRALL S A, published 2023).

Residue numbers refer to the chain shown, from its start. Names and notes keep the numbering of the source.

Assay [1] has as its target T1, hu-IL-36α (human IL-36α, N-terminally truncated active form K6-F158) (human, UniProt Q9UHA7 6-158).
T1 sequence: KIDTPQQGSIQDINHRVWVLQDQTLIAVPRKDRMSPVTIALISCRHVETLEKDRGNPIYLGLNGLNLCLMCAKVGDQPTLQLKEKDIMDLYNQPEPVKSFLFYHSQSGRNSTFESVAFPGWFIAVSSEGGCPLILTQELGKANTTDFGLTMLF
Kind of assay: cell-based or functional assay.

For assay [2], the target named is T2, hu-IL-36β (human IL-36β, N-terminally truncated active form R5-E157) (human).
T2 chain: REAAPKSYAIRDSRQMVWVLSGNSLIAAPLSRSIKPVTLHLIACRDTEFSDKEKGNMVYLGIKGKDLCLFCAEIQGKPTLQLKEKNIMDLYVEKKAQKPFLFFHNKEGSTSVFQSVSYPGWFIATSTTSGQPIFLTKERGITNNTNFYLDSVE
Kind of assay: cell-based or functional assay.

In assay [3] the target is T3, hu-IL-36γ (human IL-36γ, N-terminally truncated active form S18-D169) (human, UniProt Q9NZH8 18-169).
T3 sequence: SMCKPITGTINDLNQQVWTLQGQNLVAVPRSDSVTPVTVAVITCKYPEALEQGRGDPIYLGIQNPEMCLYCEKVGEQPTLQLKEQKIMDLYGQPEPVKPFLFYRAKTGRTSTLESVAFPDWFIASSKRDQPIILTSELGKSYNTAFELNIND
Kind of assay: cell-based or functional assay.

Assay [4] concerns the target T4, cy-IL-36α-Avi (in-vivo biotinylated) (cynomolgus monkey, limits assumed, site-specifically biotinylated in vivo on the C-terminal AviTag (BirA)).
T4 construct: also called biotinylated cyno IL-36α-Avi
T4 chain: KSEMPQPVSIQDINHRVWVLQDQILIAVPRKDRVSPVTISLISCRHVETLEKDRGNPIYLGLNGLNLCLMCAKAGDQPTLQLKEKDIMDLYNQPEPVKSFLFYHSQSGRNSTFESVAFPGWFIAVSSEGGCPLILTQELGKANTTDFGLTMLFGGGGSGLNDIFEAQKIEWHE
Kind of assay: SPR (Biacore 8K), in-vivo biotinylated IL-36-Avi captured on CAP chip, bispecific IgG injected, 37°C. As to the method: (§1) Surface plasmon resonance (SPR) analysis was used to determine the binding affinity for human and cynomolgus monkey IL-36 (“hu-IL-36” and “cy-IL-36,” respectively) using a BIACORE™ 8K instrument as described in Example 2. […] Briefly, a 1:4 dilution of Biotin CAPture Reagent (GE Healthcare) into HBS-EP buffer (0.01 M HEPES pH 7.4, 0.15 M NaCl, 3 mM EDTA, 0.005% Surfactant P20) was applied to a CAP sensor chip at 2 μL/min flow rate. For kinetics measurements, 1 nM biotinylated human and cyno IL-36α-Avi, IL-36γ-Avi; 0.8 nM biotinylated human and cyno IL-36β-Avi were captured at 10 μL/min to achieve 15-25 response units in the second flow cell (FC2). FC1 was kept as a reference. […] The sensorgram was recorded and subject to reference and buffer subtraction before data analysis with the BIACORE® 8K Evaluation Software (version 1.1.1.7442). […] Association rates (kₒₙ) and dissociation rates (koff) were calculated using a simple one-to-one Langmuir binding model. The equilibrium dissociation constant (KD) was calculated as the ratio of koff/kₒₙ.
(In general: In SPR one partner is held on a chip, and binding of the other changes the refractive index at the surface.)

The target in assay [5] is T5, cy-IL-36γ-Avi (in-vivo biotinylated) (cynomolgus monkey, limits assumed, site-specifically biotinylated in vivo on the C-terminal AviTag (BirA)).
T5 construct: also called biotinylated cyno IL-36γ-Avi
T5 chain: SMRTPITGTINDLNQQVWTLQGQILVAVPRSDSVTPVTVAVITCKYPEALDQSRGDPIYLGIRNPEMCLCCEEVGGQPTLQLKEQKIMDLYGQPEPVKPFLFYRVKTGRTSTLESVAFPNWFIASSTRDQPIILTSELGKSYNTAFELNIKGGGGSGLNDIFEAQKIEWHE
Described as above. As to the method: as §1

The target in assay [6] is T6, hu-IL-36α-Avi (in-vivo biotinylated) (human, site-specifically biotinylated in vivo on the C-terminal AviTag (BirA)).
T6 construct: also called biotinylated human IL-36α-Avi
T6 chain: T4 chain with S2I, E3D, M4T, P7Q, V8G, I24T, V34M, S40A, A74V
Described as above. As to the method:
as §1

For assay [7], the target named is T7, hu-IL-36γ-Avi (in-vivo biotinylated) (human, site-specifically biotinylated in vivo on the C-terminal AviTag (BirA)).
T7 construct: also called biotinylated human IL-36γ-Avi
T7 chain: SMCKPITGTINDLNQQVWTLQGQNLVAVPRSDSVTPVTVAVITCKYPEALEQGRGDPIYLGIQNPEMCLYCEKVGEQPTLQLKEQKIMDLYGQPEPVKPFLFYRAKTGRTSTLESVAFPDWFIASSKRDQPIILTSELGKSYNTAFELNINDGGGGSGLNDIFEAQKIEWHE
The assay is described as above. As to the method:
as §1

B1: mAb2.10/mAb6_2.7 multispecific common light chain antibody (IgG, knobs-into-holes, N297G) (bispecific antibody)
heavy 1: not shown
heavy 2: not shown
light: ESVLTQPPSVSGAPGQRVTISCTGSSSNIGAHYDVHWYQQLPGTAPKLLIYGNDNRPSGVPDRFSGSKSGTSASLAITGLQAEDEADYYCQSYDYSLSGYVFGGGTKLTVLGQPKAAPSVTLFPPSSEELQANKATLVCLISDFYPGAVTVAWKADSSPVKAGVETTTPSKQSNNKYAASSYLSLTPEQWKSHKSYSCQVTHEGSTVEKTVAPTECS
notes: tags removed; also called mAb2.10/mAb6_2.7 IgG; anti-IL-36 multispecific antibody
As for B1, the “% inhibition of IL-8 production in HEKa cells at 8 nM antibody” value in assay [1], in assay [2] and in assay [3] was 100% in each case. Moreover, the “% inhibition of IL-8 production in HaCat cells at 8 nM antibody” value in assay [1], in assay [2] and in assay [3] was 100% in each case. In addition, the “IC50, IL-36-mediated IL-8 production in HaCat cells” value is approximately 0.38 nM in assay [1], approximately 0.13 nM in assay [2] and approximately 1.1 nM in assay [3]. Moreover, the “IC50, IL-36-mediated IL-8 production in primary human adult keratinocytes (HEKa)” value is approximately 0.56 nM in assay [1], approximately 0.11 nM in assay [2] and approximately 2.7 nM in assay [3]. Besides, the Kd in assay [4] turned out to be 2.57 nM; in assay [5], 0.94 nM; in assay [6], 1.95 nM; in assay [7], 1.63 nM. In addition, the koff in assay [4] is 0.000625 s⁻¹; in assay [5] it was 0.000148 s⁻¹; in assay [6], 0.000434 s⁻¹; in assay [7], 0.000341 s⁻¹. In addition, the kon in assay [4] was determined as 243000 M⁻¹ s⁻¹; in assay [5], 158000 M⁻¹ s⁻¹; in assay [6] it was 223000 M⁻¹ s⁻¹; in assay [7], 210000 M⁻¹ s⁻¹.

As usually defined, the Kd is the free concentration of one partner at which half of the binding sites on the other are occupied at equilibrium, for simple one-to-one binding. The low end stands for tighter binding, the high end for weaker binding. What is called koff is a measure of how fast the partners let go of each other. Higher therefore signals a short-lived complex. As usually defined, the kon is the second-order rate constant of association.
